Laboratory results from patent US6495314 (Scripps Research, dated 2002).
Blank lines part the entries; values can stand above or below the binder they belong to. No end group written: not given here.

B5: Ac-CWAcp-PPPALPPKKR.amide, C3G-derived peptide designed for attachment to an affinity column (peptide)
peptide: CWPPPALPPKKR
modifications: N-terminal acetyl; ε-aminocaproic acid (Acp, B) at position 3; C-terminal amide; on the column the Cys side chain is coupled to iodoacetyl agarose (Sulfolink)
notes: also called Acetyl-CWAcp-C3G; Ac-CWBPPPALPPKKR.amide
B15: control peptide Ac-CAcpYGGFL.amide (YGGFL = leucine enkephalin) (peptide)
peptide: Ac-CYGGFL-NH2
modifications: not fully specified (residue 1); also: Cys side chain coupled to Sulfolink agarose
notes: also called Ac-CBYGGFL.amide; Leucine-Enkephalin agarose column

Experiments:
[1] = molecular target: B5; assay: Example 2: nine-member array on C3G peptide affinity column, MALDI MS readout
Method: (§1) The column was then washed with 0.5 M NaCl buffer to remove nonspecific binding proteins from the column. Specifically bound protein analogues were then eluted with 1 M hydroxylamine bufffer. Amounts of eluted peptide were monitored by UV absorbance at 280 nm. This procedure was used for both the C3G peptide column and for the control column loaded with Ac-C-AcpYGGFL.amide.
(§2) Affinity chromatography of the arrays of protein analogues was carried out as follows. […] After incubation at room temperature for a period of 6–8 hours the column was washed with 0.5 M NaCl in 0.1 M sodium phosphate, pH 7.0 buffer (6×1 mL) to remove any non-specifically bound proteins. The first two 1 mL fractions were collected and immediately mixed with an equal volume of 1 M NH_2OH, 20 mM NH_4HCO_3, pH 5.5 buffer to cleave any thioester-containing protein analogues. […] Samples of the eluted fractions were monitored by UV absorbance at 280 nm. This procedure was used for both the C3G peptide column and for the control column loaded with Ac-C-Acp-YGGFL.amide. To accommodate MALDI analysis, both the 0.5M NaCl wash and 1 M NH_2OH fractions were desalted on a low pressure, disposable C-18 column, washed with HPLC buffer A and peptide fragments eluted with 1.5 mL 60% acetonitrile in water, 0.1% TFA.

[2] = molecular target: B15; assay: nine-member array on control peptide column, A280
Method: as §1, §2

[3] = molecular target: B5; assay: 19-member array on C3G peptide affinity column, MALDI MS readout
[4] = molecular target: T1, synthetic murine cCrk N-terminal SH3 domain (residues 134-191) (murine, UniProt Q64010 134-191); assay: tryptophan fluorescence titration in solution, 12 hours incubation
T1 construct: Made by total chemical synthesis and folded in HEPES/NaCl buffer; also called cCrk(134-191); c-Crk SH3
Method: (§3) The resulting synthetic protein domain was then assayed for its affinity for two different proline-rich peptides. […] This change in solvent exposure leads to an increase in the fluorescence intensity of the tryptophan sidechain which can be monitored as a function of increasing ligand concentration (Feng et al. *Science* 1994.266, 1241–1245).
(§4) 1994, 3, 1261–1266. The purified and lyophilized 58 residue polypeptide chain (0.2 mg) was folded by dissolving in 0.6 mL of 20 mM Hepes, 60 mM NaCl, pH 7.3 to produce a folded protein solution (~50 μM).

BSA = BSA (UniProt P02769 25-607); assay: C3G peptide affinity column, stepwise NaCl washes, A280 and mass spectrometry
BSA, sequence (P02769 25-607 limits assumed): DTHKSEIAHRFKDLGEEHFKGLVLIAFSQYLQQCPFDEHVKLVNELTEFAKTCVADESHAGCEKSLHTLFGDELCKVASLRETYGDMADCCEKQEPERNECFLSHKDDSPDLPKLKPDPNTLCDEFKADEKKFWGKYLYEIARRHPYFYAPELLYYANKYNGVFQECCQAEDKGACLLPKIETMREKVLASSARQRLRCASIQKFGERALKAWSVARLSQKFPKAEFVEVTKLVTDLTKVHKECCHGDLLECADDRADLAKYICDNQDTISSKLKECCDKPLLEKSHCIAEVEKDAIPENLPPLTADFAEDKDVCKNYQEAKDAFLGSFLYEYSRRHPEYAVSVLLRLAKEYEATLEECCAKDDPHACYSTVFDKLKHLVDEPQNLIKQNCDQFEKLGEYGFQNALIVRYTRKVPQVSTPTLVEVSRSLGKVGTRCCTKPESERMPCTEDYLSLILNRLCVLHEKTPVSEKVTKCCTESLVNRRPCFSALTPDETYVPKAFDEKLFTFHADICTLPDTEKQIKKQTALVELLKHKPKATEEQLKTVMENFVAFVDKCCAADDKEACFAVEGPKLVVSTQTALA
Method: The column was washed with 4 mL each of 50 mM NaCl, 100 mM NaCl, 200 mM NaCl, 300 mM NaCl, 400 mM NaCl, 500 mM NaCl and 1000 mM NaCl, 0.1 M phosphate, pH 7.0 buffer. The column was then washed with 1 M NH_2OH 200 mM NH_4CO_3 pH 6.0 (4 mL) and finally eluted in 6M Gn.HCl 100 mM phosphate pH 6.5 (4 mL). Samples from all column fractions were monitored by absorbance at 280 nm and by HPLC.

[5] = molecular target: B5; assay: Gly-[COS]-Gly array on C3G peptide affinity column, MALDI MS readout (FIG. 27A)
[6] = molecular target: T1, synthetic murine cCrk N-terminal SH3 …; assay: in solution; method not stated in the legend
Method: as §3, §4
Target sequence in this assay (Q64010 134-191 limits assumed): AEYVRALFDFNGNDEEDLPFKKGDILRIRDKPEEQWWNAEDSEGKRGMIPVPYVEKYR

[7] = molecular target: T1, synthetic murine cCrk N-terminal SH3 …; assay: control peptide affinity column

Binder: B5
Kd [4]: 2400 nM
binding result (BSA): no binding

B6: c-Crk N-terminal SH3 domain (134-191) analogue, dipeptide DK (163-164) replaced by Gly-[COS]-Gly (other)
chain: AEYVRALFDFNGNDEEDLPFKKGDILRIRGGPEEQWWNAEDSEGKRGMIPVPYVEKYR
modifications: not fully specified; Gly-[COS]-Gly unit (-NHCH2CO-SCH2CO-) in place of D163-K164; backbone thioester (S in place of the NH of residue 164)
notes: Member of the nine-member Gly-[COS]-Gly array over cCrk(156-165); Positions count on murine c-Crk; also called DK (Gly-[COS]-Gly array)
binding result [5]: binds

B7: c-Crk N-terminal SH3 domain (134-191) analogue, dipeptide RI (160-161) replaced by Gly-[COS]-Gly (other)
chain: AEYVRALFDFNGNDEEDLPFKKGDILGGRDKPEEQWWNAEDSEGKRGMIPVPYVEKYR
modifications: not fully specified; Gly-[COS]-Gly unit (-NHCH2CO-SCH2CO-) in place of R160-I161; backbone thioester (S in place of the NH of residue 161)
notes: Member of the nine-member Gly-[COS]-Gly array over cCrk(156-165); Positions count on murine c-Crk; also called RI (Gly-[COS]-Gly array)
binding result [5]: binds

B10: c-Crk N-terminal SH3 domain (134-191) analogue, dipeptide GD (156-157) replaced by Gly-[COS]-Gly (other)
chain: AEYVRALFDFNGNDEEDLPFKKGGILRIRDKPEEQWWNAEDSEGKRGMIPVPYVEKYR
modifications: not fully specified; Gly-[COS]-Gly unit (-NHCH2CO-SCH2CO-) in place of G156-D157; backbone thioester (S in place of the NH of residue 157)
notes: Member of the nine-member Gly-[COS]-Gly array over cCrk(156-165); G156 stays Gly; Positions count on murine c-Crk; also called GD (Gly-[COS]-Gly array)
binding result [5]: binds

B14: c-Crk N-terminal SH3 domain (134-191) analogue, dipeptide KP (164-165) replaced by Gly-[COS]-Gly (other)
chain: AEYVRALFDFNGNDEEDLPFKKGDILRIRDGGEEQWWNAEDSEGKRGMIPVPYVEKYR
modifications: not fully specified; Gly-[COS]-Gly unit (-NHCH2CO-SCH2CO-) in place of K164-P165; backbone thioester (S in place of the NH of residue 165)
notes: Member of the nine-member Gly-[COS]-Gly array over cCrk(156-165); Positions count on murine c-Crk; also called KP (Gly-[COS]-Gly array)
binding result [5]: binds

Binder: B15
binding result [7]: no binding

B16: c-Crk N-terminal SH3 domain (134-191) analogue, dipeptide RD (162-163) replaced by Gly-[COS]-Gly (other)
chain: AEYVRALFDFNGNDEEDLPFKKGDILRIGGKPEEQWWNAEDSEGKRGMIPVPYVEKYR
modifications: not fully specified; Gly-[COS]-Gly unit (-NHCH2CO-SCH2CO-) in place of R162-D163; backbone thioester (S in place of the NH of residue 163)
notes: Member of the nine-member Gly-[COS]-Gly array over cCrk(156-165); Positions count on murine c-Crk; also called RD (Gly-[COS]-Gly array)
binding result [5]: binds

Other lines, results leading:

binding result [1]: no binding
binding result [2]: no binding
B1: c-Crk N-terminal SH3 domain (134-191) analogue, dipeptide GD (156-157) replaced by Gly-[COS]-βAla (other)
chain: AEYVRALFDFNGNDEEDLPFKKGXILRIRDKPEEQWWNAEDSEGKRGMIPVPYVEKYR
modifications: not fully specified; Gly-[COS]-βAla unit (-NH-CH2-CO-S-CH2-CH2-CO-) in place of G156-D157; backbone thioester
notes: G156 stays Gly; Positions count on murine c-Crk; X = -S-CH2CH2-CO- unit; also called Gly-SβAla analogue

binding result [3]: binds
binding result [2]: no binding
B2: c-Crk N-terminal SH3 domain (134-191) analogue, I^161R^162 replaced by Gly-[COS]-βAla (other)
chain: AEYVRALFDFNGNDEEDLPFKKGDILRGXDKPEEQWWNAEDSEGKRGMIPVPYVEKYR
modifications: not fully specified; Gly-[COS]-βAla unit (-NH-CH2-CO-S-CH2-CH2-CO-) in place of I161-R162; backbone thioester
notes: Positions count on murine c-Crk; X = -S-CH2CH2-CO- unit; also called IR; Gly-SβAla analogue

binding result [3]: binds
binding result [2]: no binding
B3: c-Crk N-terminal SH3 domain (134-191) analogue, D^163K^164 replaced by Gly-[COS]-βAla (other)
chain: AEYVRALFDFNGNDEEDLPFKKGDILRIRGXPEEQWWNAEDSEGKRGMIPVPYVEKYR
modifications: not fully specified; Gly-[COS]-βAla unit (-NH-CH2-CO-S-CH2-CH2-CO-) in place of D163-K164; backbone thioester
notes: Positions count on murine c-Crk; X = -S-CH2CH2-CO- unit; also called DK; Gly-SβAla analogue

binding result [3]: no binding
B4: c-Crk N-terminal SH3 domain (134-191) analogue, dipeptide DL (150-151) replaced by Gly-[COS]-βAla (other)
chain: AEYVRALFDFNGNDEEGXPFKKGDILRIRDKPEEQWWNAEDSEGKRGMIPVPYVEKYR
modifications: not fully specified; Gly-[COS]-βAla unit (-NH-CH2-CO-S-CH2-CH2-CO-) in place of D150-L151; backbone thioester
notes: Positions count on murine c-Crk; X = -S-CH2CH2-CO- unit; Tested crude in a pooled array

binding result [5]: binds
B8: c-Crk N-terminal SH3 domain (134-191) analogue, dipeptide DI (157-158) replaced by Gly-[COS]-Gly (other)
chain: AEYVRALFDFNGNDEEDLPFKKGGGLRIRDKPEEQWWNAEDSEGKRGMIPVPYVEKYR
modifications: not fully specified; Gly-[COS]-Gly unit (-NHCH2CO-SCH2CO-) in place of D157-I158; backbone thioester (S in place of the NH of residue 158)
notes: Member of the nine-member Gly-[COS]-Gly array over cCrk(156-165); Positions count on murine c-Crk; also called DI (Gly-[COS]-Gly array)

binding result [5]: binds
B9: c-Crk N-terminal SH3 domain (134-191) analogue, dipeptide IR (161-162) replaced by Gly-[COS]-Gly (other)
chain: AEYVRALFDFNGNDEEDLPFKKGDILRGGDKPEEQWWNAEDSEGKRGMIPVPYVEKYR
modifications: not fully specified; Gly-[COS]-Gly unit (-NHCH2CO-SCH2CO-) in place of I161-R162; backbone thioester (S in place of the NH of residue 162)
notes: Member of the nine-member Gly-[COS]-Gly array over cCrk(156-165); Positions count on murine c-Crk; also called IR (Gly-[COS]-Gly array)

binding result [5]: binds
B11: c-Crk N-terminal SH3 domain (134-191) analogue, dipeptide LR (159-160) replaced by Gly-[COS]-Gly (other)
chain: AEYVRALFDFNGNDEEDLPFKKGDIGGIRDKPEEQWWNAEDSEGKRGMIPVPYVEKYR
modifications: not fully specified; Gly-[COS]-Gly unit (-NHCH2CO-SCH2CO-) in place of L159-R160; backbone thioester (S in place of the NH of residue 160)
notes: Member of the nine-member Gly-[COS]-Gly array over cCrk(156-165); Positions count on murine c-Crk; also called LR (Gly-[COS]-Gly array)

Kd [4]: 1800 nM
Kd [6]: 2300 nM
B12: C3G-derived peptide PPPALPPKKR.amide (peptide)
peptide: PPPALPPKKR-NH2
notes: also called C3G peptide

binding result [5]: binds
B13: c-Crk N-terminal SH3 domain (134-191) analogue, dipeptide IL (158-159) replaced by Gly-[COS]-Gly (other)
chain: AEYVRALFDFNGNDEEDLPFKKGDGGRIRDKPEEQWWNAEDSEGKRGMIPVPYVEKYR
modifications: not fully specified; Gly-[COS]-Gly unit (-NHCH2CO-SCH2CO-) in place of I158-L159; backbone thioester (S in place of the NH of residue 159)
notes: Member of the nine-member Gly-[COS]-Gly array over cCrk(156-165); Positions count on murine c-Crk; also called IL (Gly-[COS]-Gly array)
